Data as given in PMC10175819.

Assays:
[1] = biological target: RHT1-GRAS (truncated DELLA protein carrying only the C-terminal GRAS domain), yeast hybrid fusion (wheat); experiment: yeast three-hybrid; quantitative alpha-gal Y3H assay; BD and AD fusions with a third protein expressed or not expressed; n = 12
[2] = biological target: GROWTH-REGULATING FACTOR 4 (GRF4), yeast hybrid fusion (wheat); experiment: as above

Substance | percent reduction of the PLATZ1-DELLA interaction with GRF4 as the third protein [1] [%] | fold stronger interaction than between PLATZ and DELLA [2] [fold]
GROWTH-REGULATING FACTOR 4 (GRF4), yeast hybrid fusion (natural protein) | 74 | 
RHT1-GRAS (truncated DELLA protein carrying only the C-terminal GRAS domain), yeast hybrid fusion (domain or fragment) |  | > 20
